Test results published in patent US20240287161A1 (NATIONAL UNIVERSITY CORPORATION TOTTORI UNIVERSITY, published 2024).

What was measured:
[1] = biological target: T1, HCoV-OC43 trimeric S protein (amino acids 12-1299) with T4 foldon, histidine tag and strep-tag (HCoV-OC43, UniProt P36334 12-1291); experiment: ELISA on coated S-trimeric antigen, anti-human IgG-HRP [Human IgG3, NT-193]
T1 chain: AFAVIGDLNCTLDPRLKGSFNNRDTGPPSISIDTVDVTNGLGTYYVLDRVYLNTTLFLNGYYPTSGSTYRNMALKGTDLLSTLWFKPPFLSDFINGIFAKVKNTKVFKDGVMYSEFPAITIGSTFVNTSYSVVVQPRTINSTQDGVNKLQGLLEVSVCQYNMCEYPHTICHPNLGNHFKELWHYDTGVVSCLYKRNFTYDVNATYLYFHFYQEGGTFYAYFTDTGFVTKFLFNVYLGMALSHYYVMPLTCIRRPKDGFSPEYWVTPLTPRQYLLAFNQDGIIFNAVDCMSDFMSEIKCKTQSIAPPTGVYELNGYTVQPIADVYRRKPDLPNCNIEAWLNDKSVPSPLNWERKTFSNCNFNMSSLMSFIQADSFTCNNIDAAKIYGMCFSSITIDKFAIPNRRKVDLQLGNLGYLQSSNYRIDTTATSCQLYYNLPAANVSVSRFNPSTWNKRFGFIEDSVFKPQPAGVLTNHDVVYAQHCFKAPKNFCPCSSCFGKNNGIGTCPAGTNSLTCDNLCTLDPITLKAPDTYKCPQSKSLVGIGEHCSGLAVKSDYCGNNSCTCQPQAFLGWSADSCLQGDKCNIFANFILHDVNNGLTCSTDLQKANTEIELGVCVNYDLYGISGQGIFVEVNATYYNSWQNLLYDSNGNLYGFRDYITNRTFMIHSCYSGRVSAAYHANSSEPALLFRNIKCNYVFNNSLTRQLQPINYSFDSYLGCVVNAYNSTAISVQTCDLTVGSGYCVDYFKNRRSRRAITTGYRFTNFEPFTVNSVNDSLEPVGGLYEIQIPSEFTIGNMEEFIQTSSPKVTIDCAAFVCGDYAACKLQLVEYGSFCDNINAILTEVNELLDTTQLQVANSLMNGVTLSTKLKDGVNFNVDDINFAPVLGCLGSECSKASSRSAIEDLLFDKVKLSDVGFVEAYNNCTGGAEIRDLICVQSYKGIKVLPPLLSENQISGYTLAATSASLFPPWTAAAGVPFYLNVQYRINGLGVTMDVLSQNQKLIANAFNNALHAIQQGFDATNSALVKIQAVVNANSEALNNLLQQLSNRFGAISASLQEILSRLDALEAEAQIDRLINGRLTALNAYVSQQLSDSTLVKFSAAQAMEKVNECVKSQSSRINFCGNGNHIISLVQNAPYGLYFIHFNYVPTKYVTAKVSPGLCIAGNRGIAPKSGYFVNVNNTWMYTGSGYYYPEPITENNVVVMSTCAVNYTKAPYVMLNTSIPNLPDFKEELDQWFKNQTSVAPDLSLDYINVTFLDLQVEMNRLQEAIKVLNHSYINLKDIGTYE

[2] = biological target: T2, HCoV-HKU1 trimeric S protein (amino acids 13-1293) with T4 foldon, histidine tag and strep-tag (HCoV-HKU1, UniProt Q5MQD0 13-1297); experiment: as above
T2 sequence: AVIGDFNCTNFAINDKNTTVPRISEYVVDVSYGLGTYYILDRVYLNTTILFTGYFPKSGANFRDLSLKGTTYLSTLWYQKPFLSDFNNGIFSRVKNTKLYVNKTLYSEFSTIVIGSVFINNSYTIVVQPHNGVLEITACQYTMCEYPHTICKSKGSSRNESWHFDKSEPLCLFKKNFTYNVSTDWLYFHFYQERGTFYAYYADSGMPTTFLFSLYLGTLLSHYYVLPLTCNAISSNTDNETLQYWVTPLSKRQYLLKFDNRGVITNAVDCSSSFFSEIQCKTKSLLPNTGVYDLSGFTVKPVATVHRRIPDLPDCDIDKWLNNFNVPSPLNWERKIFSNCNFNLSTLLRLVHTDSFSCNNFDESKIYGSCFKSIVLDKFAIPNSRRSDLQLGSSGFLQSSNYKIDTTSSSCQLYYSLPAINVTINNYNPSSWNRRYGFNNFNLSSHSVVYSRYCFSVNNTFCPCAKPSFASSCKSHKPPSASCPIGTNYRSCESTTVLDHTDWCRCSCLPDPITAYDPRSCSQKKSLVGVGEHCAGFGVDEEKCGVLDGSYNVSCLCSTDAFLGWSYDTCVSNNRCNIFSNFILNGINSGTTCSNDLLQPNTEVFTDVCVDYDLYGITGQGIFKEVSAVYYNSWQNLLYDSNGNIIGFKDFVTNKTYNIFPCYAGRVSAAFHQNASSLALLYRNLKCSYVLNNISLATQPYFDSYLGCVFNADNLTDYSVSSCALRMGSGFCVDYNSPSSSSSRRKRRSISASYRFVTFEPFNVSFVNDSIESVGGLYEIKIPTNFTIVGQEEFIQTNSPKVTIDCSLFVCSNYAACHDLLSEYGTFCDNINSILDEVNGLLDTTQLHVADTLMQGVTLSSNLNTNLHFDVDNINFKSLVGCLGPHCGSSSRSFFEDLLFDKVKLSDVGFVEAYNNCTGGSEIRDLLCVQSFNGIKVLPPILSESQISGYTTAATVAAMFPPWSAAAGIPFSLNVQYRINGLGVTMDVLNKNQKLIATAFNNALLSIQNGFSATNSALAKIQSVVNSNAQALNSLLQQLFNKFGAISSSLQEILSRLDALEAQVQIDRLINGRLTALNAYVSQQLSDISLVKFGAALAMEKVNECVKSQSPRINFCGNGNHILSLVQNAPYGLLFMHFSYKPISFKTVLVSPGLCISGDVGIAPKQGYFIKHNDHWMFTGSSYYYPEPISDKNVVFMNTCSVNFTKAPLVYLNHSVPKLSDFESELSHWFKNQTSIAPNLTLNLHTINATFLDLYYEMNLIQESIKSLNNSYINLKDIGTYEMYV

B1: NT-193, human IgG3 subclass (antibody, V domains shown)
VH: EVQLQQWGAGLLKPSETLSLTCAVYGGSFSGYYWSWIRQPPGKGLEWIGEINHSGSTNYNPSLKSRVTISVDTSKNQFSLKLSSVTAADTAVYYCARGWDLDYYYGMDVWGQGTTVTVSS
VL: DIRMTQSPSAMSASVGDRVTVTCRASQGIGNYLAWFQLKPGKVPKRLIYAASSLQSGVPARFSGGGSGTEFTLTISSLQPEDFATYYCLQHGFLPWTFGQGTKLEIK
binding result [1]: no binding (tested: 1000 ng/ml) | binding result [2]: no binding (tested: 1000 ng/ml)
